In patent US20190367612A1 (Daiichi Sankyo, published 2019):

Key:
[1] = molecular target: T1, human GPRC5D amino-terminal peptide MYKDCIESTGDYFLLCDAEGPWGIILE-K(Biotin)-NH2, having an intramolecular … (human, C-terminal lysine carrying biotin, C-terminal amide; intramolecularly formed disulfide bond); assay: ELISA, chemiluminescence: biotinylated amino-terminal peptide of human GPRC5D on NeutrAvidin, culture supernatant of IgG-expressing cells (one concentration, not given), HRP anti-human Fab detection
T1 construct: Peptide Institute synthetic peptide; also called amino-terminal peptide of biotinylated human GPRC5D (disulfide bond present)
T1 peptide: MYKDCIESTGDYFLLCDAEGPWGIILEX
Protocol: (§1) NeutrAvidin diluted to 1 μg/mL with PBS was added in an amount of 50 μL/well to 96-well Maxi-sorp plate, and the plate was left standing overnight at 4° C. for immobilization. After washing three times with an ELISA buffer, the amino-terminal peptide of the biotinylated human or cynomolgus monkey GPRC5D (used in Example 10)-1) diluted to 1 μg/mL with PBS was added thereto, and the plate was shaken at room temperature for 1 hour. After washing three times with an ELISA buffer, the plate was blocked with Blocker Casein and washed three times with an ELISA buffer. Then, the culture solution of the IgG-expressing FreeStyle 293F cells was added to the plate and reacted at room temperature for 2 hours. After washing three times with an ELISA buffer, a horseradish peroxidase (HRP)-labeled anti-human Fab antibody (Jackson ImmunoResearch Laboratories, Inc.) diluted 2500-fold with ELISA buffer was added thereto in an amount of 50 μL/well and reacted at room temperature for 1 hour. After washing five times with an ELISA buffer, SuperSignal Pico ELISA Chemiluminescent substrate was added. After 10 minutes, the chemiluminescence was measured using a plate reader.

human GPRC5D = molecular target: T2, human GPRC5D (human, UniProt Q9NZD1 1-345); assay: flow cytometry on KHM-1B cells (human GPRC5D), PE anti-human IgG Fc detection, rMFI = MFI minus isotype control
T2 construct: whole, on cells; also called hGPRC5D; G-protein coupled receptor family C group 5 member D
Protocol: Human multiple myeloma cell line KHM-1B cells expressing GPRC5D were adjusted to a concentration of 2×10⁶ cells/mL with PBS containing 5% FBS, inoculated in an amount of 100 μL/well to a 96-well U-bottomed microplate, and centrifuged to remove the supernatant. The culture supernatant of each human anti-GPRC5D antibody (full-length IgG form containing C2037, C3048, C3015, or C3022) obtained in Example 10)-5 or Human IgG isotype control antibody (Calbiochem/Merck Millipore Corp.) adjusted to 14 ng/mL to 30 μg/mL was added thereto in an amount of 100 μL/well, and the plate was left standing at 4° C. for 1 hour. The cells were washed twice with PBS containing 5% FBS. Then, R-Phycoerythrin AffiniPure F(ab′)2 Fragment Goat Anti-Human IgG, Fcγ Fragment Specific (Jackson ImmunoResearch Laboratories, Inc.) diluted 100-fold with PBS containing 5% FBS was added thereto in an amount of 100 μL/well, and the plate was left standing at 4° C. for 1 hour. The cells were washed twice with PBS containing 5% FBS and then resuspended in PBS containing 5% FBS, followed by detection using a flow cytometer (FACSCanto™ II; Becton, Dickinson and Company). The data was analyzed using Flowjo (Tree Star, Inc.). The PE fluorescence intensity of the cell fraction was plotted to a histogram, and the mean fluorescence intensity (MFI) was calculated. The MFI value of the control antibody was subtracted from the MFI value of the GPRC5D antibody to calculate a relative value of MFI (rMFI).

[2] = molecular target: T3, amino-terminal peptide of cynomolgus monkey GPRC5D …(Biotin)-NH2 (cynomolgus monkey, C-terminal lysine carrying biotin, C-terminal amide); assay: ELISA, biotinylated peptide on NeutrAvidin
T3 construct: also called amino-terminal peptide of biotinylated cynomolgus monkey GPRC5D
T3 peptide: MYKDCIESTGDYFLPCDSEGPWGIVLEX
Protocol: as §1

Measured: binding result

B1: IgG form of the human antibody C3015 (antibody, V domains shown)
VH: EVQLVESGGGVVQPGRSLRLSCAASGFTFRNYAMSWVRQAPGKGLEWVSGISGTGGSTYYADSVKGRFTISRDNSKDTLYLQLNSLRAEDTAVYYCAKSRSMSINYGMDVWGQGTTVTVSS
VL: SYELTQPPSVSVSPGQTVSITCSGDNLGDRYASWYQQKPGQSPVQVIYQDTKRPSGIPERFSGSNSGNTATLTISGTQAMDEADYYCQAWDSNTVVFGGGTKLTVLG
notes: Human IgG1; also called C3015 IgG form; full-length IgG form containing C3015
binds: all assays above
